Measurements as given in patent US20250388666A1 (BRIGHAM AND WOMEN S HOSPITAL, published 2025).
Substitutions are numbered along the chain they refer to. Names and notes keep the numbering of the source.

Columns and labels:
[1] = biological target: T1, CEACAM6 on transfected HeLa cells (UniProt P40199 35-320, limits assumed); assay: flow cytometry, transfected HeLa
T1 construct: whole, on cells; also called C6
T1 sequence (looked up): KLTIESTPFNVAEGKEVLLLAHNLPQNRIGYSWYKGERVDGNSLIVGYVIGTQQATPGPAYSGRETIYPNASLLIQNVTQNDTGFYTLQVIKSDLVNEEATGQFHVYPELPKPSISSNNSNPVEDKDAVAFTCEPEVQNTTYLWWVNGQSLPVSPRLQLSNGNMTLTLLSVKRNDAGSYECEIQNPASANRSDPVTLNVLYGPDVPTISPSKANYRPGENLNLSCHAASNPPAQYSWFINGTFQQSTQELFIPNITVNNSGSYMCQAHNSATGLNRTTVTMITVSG
Description: (§1) Binding selectivity of the selected antibody variants was assessed by flow cytometry using HeLa cells transfected with vectors expressing CEACAM1, CEACAM5, and CEACAM6, respectively. The resulting cells were used for flow cytometry experiments and were cultured at 37° C., 5.0% CO₂ in Dulbecco's modified Eagle's medium supplemented with 10% fetal bovine serum, penicillin (100 U/ml) and dihydrostreptomycin ([…]). Cell lines were stained with the indicated antibodies followed by fluorochrome-conjugated monoclonal antibody specific for the indicated antibody isotypes such as human IgG4 or mouse IgG1 together with viable dye (DAPI). Data were acquired with a Cytoflex flow cytometer ([…]) and analyzed with FlowJo software (TreeStar, V7.6.5 for Windows).

[2] = biological target: T2, CEACAM1 on transfected HeLa cells (Homo sapiens (Human), UniProt P13688 35-526); assay: flow cytometry, transfected HeLa
T2 construct: also called C1
T2 sequence: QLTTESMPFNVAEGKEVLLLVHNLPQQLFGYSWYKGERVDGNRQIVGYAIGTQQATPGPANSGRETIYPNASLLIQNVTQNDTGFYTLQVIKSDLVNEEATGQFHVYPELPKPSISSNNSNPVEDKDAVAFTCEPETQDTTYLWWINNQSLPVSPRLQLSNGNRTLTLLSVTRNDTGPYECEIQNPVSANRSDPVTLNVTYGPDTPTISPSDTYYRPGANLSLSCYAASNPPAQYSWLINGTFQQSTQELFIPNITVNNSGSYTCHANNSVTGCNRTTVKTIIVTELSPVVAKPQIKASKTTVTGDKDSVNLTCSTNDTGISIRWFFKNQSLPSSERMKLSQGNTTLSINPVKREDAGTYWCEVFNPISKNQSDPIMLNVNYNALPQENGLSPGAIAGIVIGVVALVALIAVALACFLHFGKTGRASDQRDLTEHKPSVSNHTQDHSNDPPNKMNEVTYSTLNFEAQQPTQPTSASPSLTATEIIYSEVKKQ
Description: as §1

[3] = biological target: T3, CEACAM1-HIS (Sino Biologics Inc.) (Homo sapiens (Human), UniProt P13688 35-428); assay: SPR single-cycle, IgG on Protein A
T3 construct: bought; not shown: His tag
T3 sequence: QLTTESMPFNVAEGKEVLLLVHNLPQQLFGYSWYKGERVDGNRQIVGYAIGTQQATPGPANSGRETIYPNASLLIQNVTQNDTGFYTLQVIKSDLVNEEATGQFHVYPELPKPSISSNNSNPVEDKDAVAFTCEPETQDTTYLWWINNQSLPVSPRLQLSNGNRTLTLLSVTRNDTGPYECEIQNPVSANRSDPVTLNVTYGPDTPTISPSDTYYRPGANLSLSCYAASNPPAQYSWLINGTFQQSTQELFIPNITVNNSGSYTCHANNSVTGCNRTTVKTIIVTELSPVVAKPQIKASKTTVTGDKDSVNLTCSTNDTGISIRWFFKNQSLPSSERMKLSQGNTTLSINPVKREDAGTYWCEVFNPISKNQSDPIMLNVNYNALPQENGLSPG
Description: As an alternative approach to assess the binding of the antibody combinations and the control antibodies to CEACAM1, a kinetic analysis was performed on a Biacore T200 running Biacore T200 Evaluation Software V2.0.1. All experiments were run at 25° C. with HBS-P+ running buffer (pH 7.4).
In order to assess the binding of all Composite Human Antibody™ variants, single cycle kinetic analysis was performed on the supernatants of all the transiently transfected HEK EBNA cells. Purified chimeric antibody and purified chimeric antibody spiked into HEK EBNA media were used as positive controls. Supernatants were diluted in HBS-P+ to a concentration of 1 μg/mL (as determined by an IgG quantitation ELISA). At the start of each cycle, antibodies were loaded onto Fc2, Fc3 and Fc4 of a Protein A chip and captured at a flow rate of 8 μL/min to give an RU of ˜100. The surface was then allowed to stabilize. Single cycle kinetic data was obtained at a flow rate of […] to minimize any potential mass transfer effects. Multiple repeats of the chimeric antibody were performed to check the stability of the surface and analyte over the kinetic cycles. The signal from the reference channel Fc1 (no antibody) was subtracted from that of Fc2, Fc3 and Fc4 to correct for differences in non-specific binding to a reference surface. A 5 point 2-fold dilution range from 3.125 to 50 nM CEACAM1 without regeneration between each concentration was used. The association phase for the 5 injections of increasing concentrations of CEACAM1 was monitored for 150 seconds and a single dissociation phase was measured for 150 seconds following the last injection of CEACAM1. Regeneration of the Protein A was conducted using 2 injections of 10 mM glycine-HCL pH 1.5 followed by a stabilization period of 500 seconds.
In the raw sensorgrams for the single cycle kinetics, the signal from each antibody blank run (no CEACAM1) was subtracted to correct for differences in surface stability.

human GST-CEACAM1 = biological target: T4, human GST-CEACAM1 (human, UniProt P13688 35-141, limits assumed); assay: competition ELISA vs murine parent antibody
T4 construct: printed both as GST-CEACAM1 and CEACAM1-GST; also called human CEACAM1-GST protein; hCEACAM1-GST; not shown: GST tag
T4 sequence: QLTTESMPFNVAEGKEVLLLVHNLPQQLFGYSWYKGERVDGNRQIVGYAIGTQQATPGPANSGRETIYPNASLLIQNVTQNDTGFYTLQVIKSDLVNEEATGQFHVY
Description: The binding of the purified chimeric antibody to human CEACAM1 was assessed in a competition ELISA assay. Nunc Immuno MaxiSorp 96 well flat bottom microtitre plates were pre-coated with 1 μg/ml human GST-CEACAM1 in 1×PBS, overnight at 4° C. The following day the plates were blocked for 1 hour at room temperature with 2% BSA/PBS before washing 2× with PBS/0.05% Tween 20 pH 7.4.
The binding of the purified antibodies to human CEACAM1 were assessed in a competition ELISA assay as described above. The ability of each variant to compete against the murine parental antibody for binding to the GST-CEACAM1 was compared to that of the chimeric antibody (VH0/Vκ0), which was included on each plate.

[4] = biological target: T5, CEACAM1 (Sino Biological) (human, UniProt P13688 35-428, limits assumed); assay: SPR single-cycle
T5 construct: may be the same as CEACAM1-HIS; also called hCEACAM1; biotinylated soluble CEACAM1
T5 sequence: T3 sequence
Outline: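 Humanized affinity-matured IgGs from crude supernatants captured on Protein A to ~100 RU, with CEACAM1 analyte injected at 25–100 nM (three-point, two-fold) in HBS-P+ without regeneration. 200 s association per injection, 300 s single dissociation; reference-channel and blank subtracted.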

[5] = biological target: T5, CEACAM1 (Sino Biological); assay: SPR multi-cycle, IgG on Protein A
Description: Multi-cycle kinetics analysis was performed on the twelve lead antibodies using a Biacore T200 instrument running Biacore T200 Evaluation Software V3.0.1 (Uppsala, Sweden) to establish an accurate affinity for CEACAM1. The purified antibodies were diluted to a concentration of […] in HBS-P+. At the start of each cycle, each antibody was captured on the Protein A surface to give an RL of ˜100 RU. Following capture, the surface was allowed to stabilize. Kinetic data was obtained using a flow rate of […] to minimize any potential mass transfer effects. For the kinetics analysis, CEACAM1 was used. Multiple repeats of the blank ([…]) and a repeat of a single concentration of the analyte were programmed into the kinetic run in order to check the stability of both the surface and analyte over the kinetic cycles. For kinetic analysis, a two-fold dilution range was selected from 200 to 3.125 nM CEACAM1. The association phase of CEACAM1 was monitored for 275 seconds and the dissociation phase was measured for 250 seconds. Regeneration of the Protein A surface was conducted using two injections of 10 mM glycine-HCL pH 1.5 at the end of each cycle.
The signal from the reference channel Fc1 was subtracted from that of Fc2, Fc3 and Fc4 to correct for differences in non-specific binding to a reference surface, and a global Rmax parameter was used in the 1-to-1 binding model. The relative KD was calculated by dividing the KD of the RSB02 Parent by that of the humanized and affinity matured variants on the same chip.

[6] = biological target: T6, CEACAM3 (Sino Biological) (human, UniProt P40198 35-155, limits assumed); assay: binding ELISA on plate-coated CEACAM (0.5 µg/mL); antibody at 1.67, 0.062 and 0.0069 µg/mL; signal as % of parent IgG on CEACAM1 at 1.67 µg/mL on the same plate
T6 construct: also called hCEACAM3
T6 sequence (looked up): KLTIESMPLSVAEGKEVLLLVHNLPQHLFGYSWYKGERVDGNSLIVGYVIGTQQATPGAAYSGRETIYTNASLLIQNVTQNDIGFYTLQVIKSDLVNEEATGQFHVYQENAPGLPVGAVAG

[7] = biological target: T7, CEACAM6 (Sino Biological) (human, UniProt P40199 35-320); assay: as above
T7 construct: also called hCEACAM6
T7 sequence (looked up): T1 sequence (looked up)

[8] = biological target: T5, CEACAM1 (Sino Biological); assay: single-point competition ELISA: crude periplasmic scFv extract mixed 1:1 with VH2 N56Q/Vk4 S27(f)A IgG (0.246 µg/mL) on plate-coated CEACAM1 (0.0625 µg/mL); remaining IgG detected with anti-human-HRP, absorbance 450 nm
Description: Nunc Immuno MaxiSorp 96 well flat bottom microtitre plates were coated with CEACAM1 at 0.0625 μg/ml overnight. Plates were subsequently washed and blocked for 1 hour at room temperature with 3% BSA/PBS. Periplasmic extracts were diluted 1:1 with VH2 N56Q/Vk4 S27(f)A IgG (parental RSB02 IgG) at 0.246 μg/mL in 6% BSA/PBS. The diluted periplasmic extract was then added to the blocked plate (100 μL per well) and the samples incubated on the plate for 1 hour at room temperature. Plates were subsequently washed and the binding of VH2 N56Q/Vk4 S27(f)A IgG was detected with an anti-human-HRP antibody (Sigma, Gillingham, UK) and TMB substrate (Invitrogen). The reaction was stopped with 1 M HCl, absorbance read at 450 nm on a Dynex Technologies MRX TC II plate reader and the binding data plotted.
Improved clones were identified on the basis of activity in the competition ELISA relative to the parental RSB02 scFv assayed on the same plate. Greater than 7300 peripreps were analyzed in total from all three libraries. Positive hits were picked into ‘cherry’ plates, re-tested within the competition ELISA to confirm results and sequenced. Dominant single sequence clones were identified in both the VH B1 (˜41% of clones sequenced after round 3 were a single dominant clone) and VL libraries (˜20% of clones were single dominant clones from those sequenced from round 3 and 4).

B1: VH1/Vκ4 (antibody, IgG4, V domains shown)
VH: EVQLLESGGGLVQPGGSLRLSCAASGFSFSDYYLYWVRQAPGKGLEWVATISVGGGNTSYPDSVKGRFTISRDNSKNTLYLQMNSLRAEDTAMYYCTRGLYYGPAWFAYWGQGTLVTVSS
VL: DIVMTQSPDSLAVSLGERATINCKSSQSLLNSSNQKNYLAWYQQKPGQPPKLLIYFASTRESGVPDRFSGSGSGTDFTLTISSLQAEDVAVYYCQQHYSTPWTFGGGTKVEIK
notes: IgG4 (S241P), kappa; also called VH1/VK4
relative fluorescence intensity [1]: 1.19 | relative fluorescence intensity [2]: 81.1 | Kd [3]: 143 nM | relative KD to chimeric parental antibody [3]: 3.3 ratio | average relative IC50 (normalized to chimeric antibody) (human GST-CEACAM1): 4.4 ratio

B2: He14/L1 (antibody, IgG4, V domains shown)
VH: B1 VH with N57Q, P61A, A105S, F107V
VL: DIVMTQSPDSLAVSLGERATINCKSSQSLLNSANQKNYLAWYQQKPGQPPKLLIYFASTRESGVPDRFSGSGSGTDFTLTISSLQAEDVAVYYCQSHYPFYYTFGGGTKVEIK
notes: IgG4 S241P, kappa; also called He14 / 1
Kd [4]: 69 nM | fold better than Parent (KD) [4]: 2.3 fold | Kd [5]: 67.3 nM | koff [5]: 0.00724 s⁻¹ | kon [5]: 108000 M⁻¹ s⁻¹ | relative KD to Parent [5]: 1.83 ratio | binding result [6]: no binding (tested: 1.67 µg/mL) | binding result [7]: no binding (tested: 1.67 µg/mL)

B3: Parent (scFv)
scFv: EVQLLESGGGLVQPGGSLRLSCAASGFSFSDYYLYWVRQAPGKGLEWVATISVGGGQTSYADSVKGRFTISRDNSKNTLYLQMNSLRAEDTAMYYCTRGLYYGPAWFAYWGQGTLVTVSSGGGGSGGGGSGGGGSDIVMTQSPDSLAVSLGERATINCKSSQSLLNSANQKNYLAWYQQKPGQPPKLLIYFASTRESGVPDRFSGSGSGTDFTLTISSLQAEDVAVYYCQQHYSTPWTFGGGTKVEIK
notes: also called parent humanized scFv; parental RSB02 scFv; not shown: C-terminal Flag tag from phagemid pANT65
binding result [8]: binds
